Data taken from the supplement of paper PMC5998384.

Legend:
HeLa Kyoto [1] = test: solubility in G1/S (NP-40 vs SDS abundance) (log2 ratio); higher = more soluble; conditions: cell cycle stage: G1/S
HeLa Kyoto [2] = test: melting temperature (median over replicates), in situ; higher = more thermally stable
HeLa Kyoto [3] = test: solubility change mitosis vs G1/S (difference of NP-40 vs SDS log2 ratios) (log2 ratio difference); higher = more soluble in mitosis
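Wherever melting temperature (median over replicates), in situ is given: HeLa Kyoto cells synchronized by double thymidine or nocodazole block, proteins quantified by TMT10plex mass spectrometry, three independent biological replicates.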
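Wherever solubility change mitosis vs G1/S (difference of NP-40 vs SDS log2 ratios) is given: synchronized HeLa Kyoto cells (double thymidine block for G1/S, nocodazole release for mitosis), protein amounts in NP-40 versus SDS lysates quantified by mass spectrometry, three biological replicates.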
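Wherever solubility in G1/S (NP-40 vs SDS abundance) is given: HeLa Kyoto cells arrested at G1/S by double thymidine block, proteins quantified by TMT10plex mass spectrometry in mild NP-40 versus SDS extracts, three biological replicates.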

Sequence | solubility in G1/S (log2) (HeLa Kyoto [1]) | melting temperature (HeLa Kyoto [2]; cell cycle stage: G1/S) [°C] | melting temperature (HeLa Kyoto [2]; cell cycle stage: mitosis) [°C] | solubility change mitosis (log2) (HeLa Kyoto [3])
MFVSDFRKEFYEVVQSQRVLLFVASDVDALCACKILQALFQCDHVQYTLVPVSGWQELETAFLEHKEQFHYFILINCGANVDLLDILQPDEDTIFFVCDTHRPVNVVNVYNDTQIKLLIKQDDDLEVPAYEDIFRDEEEDEEHSGNDSDGSEPSEKRTRLEEEIVEQTMRRRQRREWEARRRDILFDYEQYEYHGTSSAMVMFELAWMLSKDLNDMLWWAIVGLTDQWVQDKITQMKYVTDVGVLQRHVSRHNHRNEDEENTLSVDCTRISFEYDLRLVLYQHWSLHDSLCNTSYTAARFKLWSVHGQKRLQEFLADMGLPLKQVKQKFQAMDISLKENLREMIEESANKFGMKDMRVQTFSIHFGFKHKFLASDVVFATMSLMESPEKDGSGTDHFIQALDSLSRSNLDKLYHGLELAKKQLRATQQTIASCLCTNLVISQGPFLYCSLMEGTPDVMLFSRPASLSLLSKHLLKSFVCSTKNRRCKLLPLVMAAPLSMEHGTVTVVGIPPETDSSDRKNFFGRAFEKAAESTSSRMLHNHFDLSVIELKAEDRSKFLDALISLLS [CDC45] | -0.233 | 47.6 | 48.5 | -0.126
MGAQFSKTAAKGEAAAERPGEAAVASSPSKANGQENGHVKVNGDASPAAAESGAKEELQANGSAPAADKEEPAAAGSGAASPSAAEKGEPAAAAAPEAGASPVEKEAPAEGEAAEPGSPTAAEGEAASAASSTSSPKAEDGATPSPSNETPKKKKKRFSFKKSFKLSGFSFKKNKKEAGEGGEAEAPAAEGGKDEAAGGAAAAAAEAGAASGEQAAAPGEEAAAGEEGAAGGDPQEAKPQEAAVAPEKPPASDETKAAEEPSKVEEKKAEEAGASAAACEAPSAAGPGAPPEQEAAPAEEPAAAAASSACAAPSQEAQPECSPEAPPAEAAE [MARCKS] | -0.36 | 55.6 |  | 0.579
MGDDQEDDFPRRLSESMEDLSLDLGALQGSEYLQDLGLGAPSHSQPGETPDSRPTGEEPGRDSLFSSLAGSQDLSRRRSWERSRSCSESWRRLSLDASAVDEEPCLPRTLASLALNLPGGGLKTWTQGCLSGGGTPAESPGKECDSPKKRGRSRSVPVSFYEIRSPEISPGLEVPTPPVQGLEPPVLECMEKDHVEPDHVLIVQQVLQELRQYHGARQRACMSASPGGAHSNLTWFEFLSESEDGAGKNEKSDKSTSVKRRLSCLRSRVTRQKEKGKSPAHLKDKGQDARERRECVNGHQLLQGTFSGPSSCPLCGKPFLSSASLKEHPRGTLLSDGSPALSRNVGMTVSQKGGPQPTPSPAGPGTQLGPITGEMDEADSAFLKFKQTADDSLSLTSPNTESIFVEDPYTASLRSEIESDGHEFEAESWSLAVDAAYAKKQKREVVKRQDVLYELMQTEVHHVRTLKIMLKVYSRALQEELQFSSKAIGRLFPCADDLLETHSHFLARLKERRQESLEEGSDRNYVIQKIGDLLVQQFSGENGERMKEKYGVFCSGHNEAVSHYKLLLQQNKKFQNLIKKIGNFSIVRRLGVQECILLVTQRITKYPVLVERIIQNTEAGTEDYEDLTQALNLIKDIISQVDAKVSECEKGQRLREIAGKMDLKSSSKLKNGLTFRKEDMLQRQLHLEGMLCWKTTSGRLKDILAILLTDVLLLLQEKDQKYVFASVDSKPPVISLQKLIVREVANEEKAMFLISASLQGPEMYEIYTSSKEDRNAWMAHIQRAVESCPDEEEGPFSLPEEERKVVEARATRLRDFQERLSMKDQLIAQSLLEKQQIYLEMAEMGGLEDLPQPRGLFRGGDPSETLQGELILKSAMSEIEGIQSLICRQLGSANGQAEDGGSSTGPPRRAETFAGYDCTNSPTKNGSFKKKVSSTDPRPRDWRGPPNSPDLKLSDSDIPGSSEESPQVVEAPGTESDPRLPTVLESELVQRIQTLSQLLLNLQAVIAHQDSYVETQRAAIQEREKQFRLQSTRGNLLLEQERQRNFEKQREERAALEKLQSQLRHEQQRWERERQWQHQELERAGARLQEREGEARQLRERLEQERAELERQRQAYQHDLERLREAQRAVERERERLELLRRLKKQNTAPGALPPDTLAEAQPPSHPPSFNGEGLEGPRVSMLPSGVGPEYAERPEVARRDSAPTENRLAKSDVPIQLLSATNQFQRQAAVQQQIPTKLAASTKGGKDKGGKSRGSQRWESSASFDLKQQLLLNKLMGKDESTSRNRRSLSPILPGRHSPAPPPDPGFPAPSPPPADSPSEGFSLKAGGTALLPGPPAPSPLPATPLSAKEDASKEDVIFF [ARHGEF18] | 0.0647 | 51.9 | 51.1 | -0.0175
MGEDAAQAEKFQHPGSDMRQEKPSSPSPMPSSTPSPSLNLGNTEEAIRDNSQVNAVTVLTLLDKLVNMLDAVQENQHKMEQRQISLEGSVKGIQNDLTKLSKYQASTSNTVSKLLEKSRKVSAHTRAVKERMDRQCAQVKRLENNHAQLLRRNHFKVLIFQEENEIPASVFVKQPVSGAVEGKEELPDENKSLEETLHTVDLSSDDDLPHDEEALEDSAEEKVEESRAEKIKRSSLKKVDSLKKAFSRQNIEKKMNKLGTKIVSVERREKIKKSLTSNHQKISSGKSSPFKVSPLTFGRKKVREGESHAENETKSEDLPSSEQMPNDQEEESFAEGHSEASLASALVEGEIAEEAAEKATSRGSNSGMDSNIDLTIVEDEEEESVALEQAQKVRYEGSYALTSEEAERSDGDPVQPAVLQVHQTS [SDPR] | -0.0681 | 53.9 | 53.4 | 0.043
MGEFKVHRVRFFNYVPSGIRCVAYNNQSNRLAVSRTDGTVEIYNLSANYFQEKFFPGHESRATEALCWAEGQRLFSAGLNGEIMEYDLQALNIKYAMDAFGGPIWSMAASPSGSQLLVGCEDGSVKLFQITPDKIQFERNFDRQKSRILSLSWHPSGTHIAAGSIDYISVFDVKSGSAVHKMIVDRQYMGVSKRKCIVWGVAFLSDGTIISVDSAGKVQFWDSATGTLVKSHLIANADVQSIAVADQEDSFVVGTAEGTVFHFQLVPVTSNSSEKQWVRTKPFQHHTHDVRTVAHSPTALISGGTDTHLVFRPLMEKVEVKNYDAALRKITFPHRCLISCSKKRQLLLFQFAHHLELWRLGSTVATGKNGDTLPLSKNADHLLHLKTKGPENIICSCISPCGSWIAYSTVSRFFLYRLNYEHDNISLKRVSKMPAFLRSALQILFSEDSTKLFVASNQGALHIVQLSGGSFKHLHAFQPQSGTVEAMCLLAVSPDGNWLAASGTSAGVHVYNVKQLKLHCTVPAYNFPVTAMAIAPNTNNLVIAHSDQQVFEYSIPDKQYTDWSRTVQKQGFHHLWLQRDTPITHISFHPKRPMHILLHDAYMFCIIDKSLPLPNDKTLLYNPFPPTNESDVIRRRTAHAFKISKIYKPLLFMDLLDERTLVAVERPLDDIIAQLPPPIKKKKFGT [CIRH1A] | -1.13 | 54.3 | 52.3 | 0.349
MGLCKCPKRKVTNLFCFEHRVNVCEHCLVANHAKCIVQSYLQWLQDSDYNPNCRLCNIPLASRETTRLVCYDLFHWACLNERAAQLPRNTAPAGYQCPSCNGPIFPPTNLAGPVASALREKLATVNWARAGLGLPLIDEVVSPEPEPLNTSDFSDWSSFNASSTPGPEEVDSASAAPAFYSQAPRPPASPGRPEQHTVIHMGNPEPLTHAPRKVYDTRDDDRTPGLHGDCDDDKYRRRPALGWLARLLRSRAGSRKRPLTLLQRAGLLLLLGLLGFLALLALMSRLGRAAADSDPNLDPLMNPHIRVGPS [ZFPL1] | 0.256 | 57.4 |  | -0.0676
MGLFGKTQEKPPKELVNEWSLKIRKEMRVVDRQIRDIQREEEKVKRSVKDAAKKGQKDVCIVLAKEMIRSRKAVSKLYASKAHMNSVLMGMKNQLAVLRVAGSLQKSTEVMKAMQSLVKIPEIQATMRELSKEMMKAGIIEEMLEDTFESMDDQEEMEEEAEMEIDRILFEITAGALGKAPSKVTDALPEPEPPGAMAASEDEEEEEEALEAMQSRLATLRS [CHMP3] | 0.866 | 51.4 | 51 | -0.0644
